Experimental data taken from patent US20150337049A1 (Genmab, published 2015).

Columns and labels:
[1] = biological target: T1, C1q (from 3% pooled human serum) (human, UniProt P02745 23-245; P02746 28-253; P02747 29-245); assay: ELISA, antibody coated, 3% pooled human serum, anti-C1q detection
T1 construct: Native C1q of pooled human serum, detected with rabbit anti-human C1q

[2] = biological target: T2, HER2 on HER2-positive AU565 cells (human, UniProt P04626 23-1255); assay: FACS, AU565 cells
T2 construct: whole, on cells

- binding result [2]: binds
B1: bsIgG1-CD3×HER2-… (IgG1-huCLB-T3/4×HER2-169 with L234F/L235E/D265A/N297Q/P331S) (bispecific antibody)
heavy 1: EVQLVESGGGLVKPGGSLRLSCAASGFTFSSYGMFWVRQAPGKGLEWVATISRYSRYIYYPDSVKGRFTISRDNAKNSLYLQMNSLRAEDTAVYYCARRPLYGSSPDYWGQGTLVTVSSASTKGPSVFPLAPSSKSTSGGTAALGCLVKDYFPEPVTVSWNSGALTSGVHTFPAVLQSSGLYSLSSVVTVPSSSLGTQTYICNVNHKPSNTKVDKRVEPKSCDKTHTCPPCPAPEFEGGPSVFLFPPKPKDTLMISRTPEVTCVVVAVSHEDPEVKFNWYVDGVEVHNAKTKPREEQYQSTYRVVSVLTVLHQDWLNGKEYKCKVSNKALPASIEKTISKAKGQPREPQVYTLPPSREEMTKNQVSLTCLVKGFYPSDIAVEWESNGQPENNYKTTPPVLDSDGSFLLYSKLTVDKSRWQQGNVFSCSVMHEALHNHYTQKSLSLSPGK
VL 1: EIVLTQSPATLSLSPGERATLSCSASSSVTYVHWYQQKPGQAPRLLIYDTSKLASGIPARFSGSGSGTDFTLTISSLEPEDFAVYYCFQGSGYPLTFGSGTKLEMR
heavy 2: QVQLVQSGAEVKKPGASVKVSCKASGYTFTNYGISWVRQAPGQGLEWMGWLSAYSGNTIYAQKLQGRVTMTTDTSTTTAYMELRSLRSDDTAVYYCARDRIVVRPDYFDYWGQGTLVTVSSASTKGPSVFPLAPSSKSTSGGTAALGCLVKDYFPEPVTVSWNSGALTSGVHTFPAVLQSSGLYSLSSVVTVPSSSLGTQTYICNVNHKPSNTKVDKRVEPKSCDKTHTCPPCPAPEFEGGPSVFLFPPKPKDTLMISRTPEVTCVVVAVSHEDPEVKFNWYVDGVEVHNAKTKPREEQYQSTYRVVSVLTVLHQDWLNGKEYKCKVSNKALPASIEKTISKAKGQPREPQVYTLPPSREEMTKNQVSLTCLVKGFYPSDIAVEWESNGQPENNYKTTPPVLDSDGSFFLYSRLTVDKSRWQQGNVFSCSVMHEALHNHYTQKSLSLSPGK
VL 2: EIVLTQSPATLSLSPGERATLSCRASQSVSSYLAWYQQKPGQAPRLLIYDASNRATGIPARFSGSGSGTDFTLTISSLEPEDFAVYYCQQRSNWPRTFGQGTKVEIK
- binding result [1]: no binding (tested: coated at 7-30000 ng/mL)
